Where two headings read alike, the source gives them in different places. Blank lines part the entries; values can stand above or below the substance they belong to.
Legend:
[1] = biological target: CD28 (human) (UniProt P10747)
[2] = biological target: PD-L1 (human) (UniProt Q9NZQ7)
Target sequence in this assay (Q9NZQ7 19-290): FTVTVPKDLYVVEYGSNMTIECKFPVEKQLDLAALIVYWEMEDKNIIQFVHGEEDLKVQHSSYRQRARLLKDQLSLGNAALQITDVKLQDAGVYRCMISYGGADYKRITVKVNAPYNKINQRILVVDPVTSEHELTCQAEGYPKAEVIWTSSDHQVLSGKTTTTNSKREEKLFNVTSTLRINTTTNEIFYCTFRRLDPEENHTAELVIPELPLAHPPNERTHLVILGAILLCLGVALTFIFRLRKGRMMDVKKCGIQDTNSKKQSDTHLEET

[3] = biological target: human CTLA-4 (human) (UniProt P16410); experiment: flow cytometry, CHO cells expressing huCTLA4
[4] = biological target: PD-L1 (human) (UniProt Q9NZQ7); experiment: flow cytometry, CHO cells expressing huPD-L1
Target sequence in this assay (Q9NZQ7 19-290): as above

[5] = biological target: CD28 (human) (UniProt P10747); experiment: flow cytometry, Jurkat/IL2 reporter cells (CD28)
[6] = biological target: human CTLA-4 (human) (UniProt P16410); experiment: flow cytometry, CHO cells expressing huCTLA4, vs WT CD80 ECD-Fc (R&D)
[7] = biological target: CD28 (human) (UniProt P10747); experiment: flow cytometry, Jurkat/IL2 reporter cells (CD28), vs WT CD80 ECD-Fc (R&D)
[8] = biological target: PD-L1 (human) (UniProt Q9NZQ7); experiment: flow cytometry, CHO cells expressing huPD-L1; remark: listed apart in the source
Target sequence in this assay (Q9NZQ7 19-290): as above

[9] = biological target: human CTLA-4 (human) (UniProt P16410); experiment: flow cytometry, CHO cells expressing huCTLA-4
[10] = biological target: CD28 (human) (UniProt P10747); experiment: flow cytometry, Jurkat/IL2 reporter cells (CD28); remark: listed apart in the source
[11] = biological target: PD-L1 (human) (UniProt Q9NZQ7); experiment: flow cytometry, CHO/huPD-L1 cells; vs WT CD80 ECD-Fc (Abcam)
Target sequence in this assay (Q9NZQ7 19-290): as above

[12] = biological target: human CTLA-4 (human) (UniProt P16410); experiment: flow cytometry, CHO/huCTLA-4 cells; vs WT CD80 ECD-Fc (Abcam)
[13] = biological target: CD28 (human) (UniProt P10747); experiment: flow cytometry, Jurkat cells (CD28)
[14] = biological target: human CTLA-4 (human) (UniProt P16410); experiment: flow cytometry, CHO cells stably expressing CTLA4
[15] = biological target: PD-L1 (human) (UniProt Q9NZQ7); experiment: flow cytometry, CHO cells stably expressing PD-L1
Target sequence in this assay (Q9NZQ7 19-290): as above

[16] = biological target: human CTLA-4 (human) (UniProt P16410); experiment: flow cytometry, CHO/CTLA4 cells; MFI over CD80 WT IgV-Fc
[17] = biological target: PD-L1 (human) (UniProt Q9NZQ7); experiment: flow cytometry, CHO/PD-L1 cells; MFI over CD80 WT IgV-Fc
Target sequence in this assay (Q9NZQ7 19-290): as above

[18] = biological target: CD28 (human) (UniProt P10747); experiment: flow cytometry, Jurkat cells (CD28); MFI over CD80 WT IgV-Fc
[19] = biological target: CD28 (human) (UniProt P10747); remark: listed apart in the source
[20] = biological target: PD-L1 (human) (UniProt Q9NZQ7); remark: listed apart in the source
[21] = biological target: CD28 (human) (UniProt P10747); remark: listed apart in the source
[22] = biological target: PD-L1 (human) (UniProt Q9NZQ7); remark: listed apart in the source
[23] = biological target: CD28 (human) (UniProt P10747); experiment: flow cytometry, Jurkat cells (CD28); remark: listed apart in the source
[24] = biological target: human CTLA-4 (human) (UniProt P16410); experiment: flow cytometry, CHO cells stably expressing CTLA4; remark: listed apart in the source
[25] = biological target: PD-L1 (human) (UniProt Q9NZQ7); experiment: flow cytometry, CHO cells stably expressing PD-L1; remark: listed apart in the source
[26] = biological target: PD-L1 (human) (UniProt Q9NZQ7); experiment: flow cytometry, HEK293 cells transfected with human PD-L1
[27] = biological target: CD28 (human) (UniProt P10747); remark: listed apart in the source
[28] = biological target: PD-L1 (human) (UniProt Q9NZQ7); remark: listed apart in the source
[29] = biological target: PD-L1 (human) (UniProt Q9NZQ7); experiment: flow cytometry, MFI on CHO/PD-L1 over MFI on Jurkat (CD28)
[30] = biological target: PD-L1 (human) (UniProt Q9NZQ7); experiment: flow cytometry, CHO cells expressing PD-L1
[31] = biological target: CD28 (human) (UniProt P10747); experiment: flow cytometry, HEK293 cells transfected with human CD28
[32] = biological target: CD28 (human) (UniProt P10747); remark: listed apart in the source

Chain of human CTLA-4 (human) (P16410 36-223): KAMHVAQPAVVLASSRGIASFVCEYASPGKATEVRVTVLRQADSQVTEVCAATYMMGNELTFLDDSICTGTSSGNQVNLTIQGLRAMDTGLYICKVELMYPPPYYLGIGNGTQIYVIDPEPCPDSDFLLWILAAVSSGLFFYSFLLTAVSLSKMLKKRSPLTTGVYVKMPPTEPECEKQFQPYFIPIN

IL2-luciferase reporter (RLU), fold increase over WT CD80-IgV-Fc at 5.0 nM [1]: 6.5 fold | IL2-luciferase reporter (RLU), fold increase over WT CD80-IgV-Fc at 5.0 nM [2]: 6.5 fold
Substance: CD80 V22A/E35D/M47L/A71G IgV-Fc (Fc fusion)

MFI at 33.3 nM [3]: 226000 MFI | MFI at 33.3 nM [4]: 11900 MFI | MFI at 33.3 nM [5]: 1290 MFI | Fold change to WT CD80 [6]: 1.44 fold | Fold change to WT CD80 [7]: 0.07 fold
Substance: variant CD80 IgV-Fc E35D/M42V/M47V/E52D/L85Q (Fc fusion)

MFI at 33.3 nM [8]: 5980 MFI | MFI at 33.3 nM [9]: 40200 MFI | MFI at 33.3 nM [10]: 567 MFI | Fold change to WT CD80 [11]: 46.7 fold | Fold change to WT CD80 [12]: 1 fold
Substance: variant CD80 IgV-Fc D46V/M47L/L85Q (Fc fusion)

MFI at 33.3 nM [13]: 8060 MFI | MFI at 33.3 nM [14]: 24900 MFI | MFI at 33.3 nM [15]: 73900 MFI | Fold change to WT CD80 [16]: 18 fold | Fold change to WT CD80 [17]: 448 fold | Fold change to WT CD80 [18]: 79 fold
Substance: variant CD80 IgV-Fc (inert) H18V/A26S/E35D/M47L/V68M/A71G/D90G (Fc fusion)

MFI at 33.3 nM [13]: 4730 MFI | MFI at 33.3 nM [14]: 23800 MFI | MFI at 33.3 nM [15]: 33400 MFI | Fold change to WT CD80 [16]: 17.2 fold | Fold change to WT CD80 [17]: 203 fold | Fold change to WT CD80 [18]: 46.4 fold
Substance: variant CD80 IgV-Fc (inert) H18A/A26P/E35D/M47L/V68M/A71G/D90G (Fc fusion)

IL2-luciferase reporter, fold increase in RLU over WT CD80-IgV-Fc at 5.0 nM [19]: 2.63 fold | IL2-luciferase reporter, fold increase in RLU over WT CD80-IgV-Fc at 5.0 nM [20]: 2.63 fold
Substance: CD80 E35D/M47V/N48K/V68M/K89N IgV-Fc, delta linker (Fc fusion)

RLU at 5.0 nM: Fold Increase over WT CD80-IgV-Fc [21]: 5.5 fold | RLU at 5.0 nM: Fold Increase over WT CD80-IgV-Fc [22]: 5.5 fold | MFI at 33.3 nM [23]: 1430 MFI | MFI at 33.3 nM [24]: 19700 MFI | MFI at 33.3 nM [25]: 9300 MFI
Substance: CD80 IgV-Fc H18Y/E35D/M47I/V68M/Y87N (Fc fusion)

MFI at 22.2 nM [26]: 6310
Substance: variant CD80 IgV-Fc S44P/A71D (Fc fusion)

IL2-luciferase reporter, fold increase in RLU over WT CD80-IgV-Fc at 5.0 nM [27]: 5.8 fold | IL2-luciferase reporter, fold increase in RLU over WT CD80-IgV-Fc at 5.0 nM [28]: 5.8 fold | MFI at 33.3 nM [13]: 6730 MFI | MFI at 33.3 nM [14]: 16700 MFI | MFI at 33.3 nM [15]: 24400 MFI | Fold change to WT CD80 [16]: 12 fold | Fold change to WT CD80 [17]: 148 fold | Fold change to WT CD80 [18]: 66 fold
Substance: variant CD80 IgV-Fc (inert) H18Y/A26Q/E35D/M47T/V68M/A71G/D90G (Fc fusion)

RLU at 5.0 nM: Fold Increase over WT CD80-IgV-Fc [21]: 5.5 fold | RLU at 5.0 nM: Fold Increase over WT CD80-IgV-Fc [22]: 5.5 fold | Fold change to WT CD80 [23]: 69.1 fold | MFI at 33.3 nM [23]: 2850 MFI | Fold change to WT CD80 [24]: 19.8 fold | MFI at 33.3 nM [24]: 20700 MFI | Fold change to WT CD80 [25]: 140 fold | MFI at 33.3 nM [25]: 9890 MFI | Ratio of PDL1:CD28 [29]: 3.5
Substance: CD80 IgV-Fc H18Y/E35D/M47L/V68M/A71G/L85M (Fc fusion)

MFI at 33.3 nM [13]: 31 MFI | MFI at 33.3 nM ([13]; record 2): 30 MFI | MFI at 33.3 nM [23]: 46 MFI | MFI at 33.3 nM [30]: 52 MFI | MFI at 33.3 nM [25]: 58 MFI | MFI at 66.6 nM [31]: 24800
Substance: WT CD80 ECD-Fc (Fc fusion)

MFI at 33.3 nM [13]: 4910 MFI | MFI at 33.3 nM [14]: 21400 MFI | MFI at 33.3 nM [15]: 36300 MFI | Fold change to WT CD80 [16]: 15.4 fold | Fold change to WT CD80 [17]: 220 fold | Fold change to WT CD80 [18]: 48.2 fold
Substance: variant CD80 IgV-Fc (inert) H18A/A26N/E35D/M47L/V68M/A71G/D90G (Fc fusion)

Fold increase in IL2 reporter signal (Jurkat/IL2 reporter assay) (fold vs WT CD80 IgV-Fc) [32]: 0.36
Substance: variant CD80 IgV-Fc E35D/A71D (SEQ ID NO 176) (Fc fusion)

— patent publication US20220177587A1, “METHODS AND USES OF VARIANT CD80 FUSION PROTEINS AND RELATED CONSTRUCTS” (Alpine Immune Sciences, Inc., priority 2018, published 2022)
